Data: patent US20050119205A1, “Methods of modulating heme oxygenase-1 expression and treating heme oxygenase-1 mediated conditions” (published 2005)

What was measured:
[1] = target: the molecule itself; assay: native PAGE (approx. 69 kDa band) against SDS-PAGE (~35 and ~40 kDa bands) of in vitro translated protein
Description: The transcribed mRNA was translated in the presence of [35S] methionine using rabbit reticulocyte lysate. In vitro translation was performed using micrococcal nuclease treated rabbit reticulocyte lysate (Promega). 50 μl reaction mixture was prepared by using 35 μl lysate, 1 μl of 0.1 M DTT, 2 μl of 1 mM amino acid mixture minus methionine, 1 μl of RNase inhibitor and 5 μl translation grade [³⁵S] methionine. 5 μl transcribed mRNA was added to the above reaction mixture and immediately incubated at 30° C. for 90 minutes. The in vitro translated proteins were resolved on 12% SDS or native polyacrylamide gel along with rainbow or native high molecular weight markers, respectively (Amersham Pharmacia). The gels were fixed in 10% acetic acid and 30% methanol then treated with autoradiography enhancer (Amplify, Amersham Pharmacia) for 30 min and dried under vacuum at 80° C. for 2 h, and autoradiographed at −70° C.
In vitro translated protein was assayed on native gel immediately after synthesis. […] A portion of the translated protein was treated with SDS and analyzed on denaturing 12% polyacrylamide gel.
Next, whether the protein synthesized by reticulocyte lysate is in fact hBVR was tested. […] As shown in the autoradiogram, two prominent bands at ˜35 and ˜40 kDa were detected. hBVR, based on its predicted amino acid composition, has a molecular weight of ˜34 kDa (Maines et al., Eur. J. Biochem.

[2] = target: the molecule itself; assay: native 12% polyacrylamide gel, homodimer (~69 kDa band) formation
Description: In vitro translated protein was assayed on native gel immediately after synthesis. One μl of in vitro translated material was added to 2 μl (25 ng) of annealed, unlabelled control DNA fragment. To this 0.4 μg of poly dI•dC (Amersham Pharmacia) in 14 μl DNA binding buffer (10 mM Tris-chloride [pH 7.4], 50 mM NaCl, 1 mM MgCl₂, 1 mM EDTA, 1 mM DTT, 5% glycerol) was added. It was incubated for 5 min at room temperature and after adding 5 μl loading buffer (1.5×DNA binding buffer with bromophenol blue dye) samples were resolved on 12% native polyacrylamide gel in TAE buffer at 35 milliamps. The control DNA helps to prevent the formation of nonspecific protein aggregates, thereby increasing the resolution of protein bands (Halazonetis et al., Cell 55:917-924 (1988), which is hereby incorporated by reference in its entirety). A portion of the translated protein was treated with SDS and analyzed on denaturing 12% polyacrylamide gel.
(§1) For this set of experiments, the [³⁵S] methionine-labeled mutant BVR proteins were generated by in vitro translation and assayed on a 12% native gel for detection of the ˜69 kDa protein band and analysis of DNA for complex formation. The 100-mer DNA fragment with two AP-1 sites or without an AP-1 site were used. On the native gel the high molecular weight band was not detected with the mutated proteins.

[3] = target: T1, biliverdin reductase (hBVR) (Homo sapiens, UniProt P53004 SEQ:1-296); assay: EMSA; 10 mM Tris pH 7.4, 50 mM NaCl, 1 mM MgCl2, 1 mM EDTA, poly(dI-dC), room temperature; conditions: tags: rabbit reticulocyte lysate, 35S-Met labelled; chain copies: 2 (stated homodimer); label: 32P 5'
T1 chain: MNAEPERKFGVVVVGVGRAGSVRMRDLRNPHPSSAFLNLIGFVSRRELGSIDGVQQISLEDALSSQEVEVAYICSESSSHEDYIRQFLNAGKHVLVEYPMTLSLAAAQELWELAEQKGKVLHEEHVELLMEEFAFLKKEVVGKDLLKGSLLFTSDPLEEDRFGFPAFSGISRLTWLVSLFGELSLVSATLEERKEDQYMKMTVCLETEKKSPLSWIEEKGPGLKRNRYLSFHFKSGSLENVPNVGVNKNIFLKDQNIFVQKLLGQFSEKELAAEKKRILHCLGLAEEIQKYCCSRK
Description: (§2) As with native gel analysis, in vitro translated proteins were assayed for DNA binding immediately after synthesis. 1 μl of translated material was added to 5000-500,000 cpm of [³²P]-labeled DNA fragment representing approximately 2-3 ng of DNA. 0.1 μg of poly (dI•dC) in 10 μl of DNA binding buffer was added to the labeled DNA. After incubating samples for 20 min at room temperature, 5 μl loading buffer was added. The samples were resolved on 12% native polyacrylamide gel with 35 m Amp at 4° C. The gels were processed as described above. Dried gels were put on two pieces of film separated by a piece of paper. Autoradiography was done at −70° C. for different time periods.
(§3) To determine whether the synthesized HBVR binds to DNA, the in vitro translated hBVR was incubated with [³²P]-labeled 56-mer or 100-mer DNA fragments. An identical 56 bp fragment in which the AP-I site was substituted with an unrelated sequence of equal length was used as control DNA. In addition, two identical 100 bp fragments with one AP-1 or zero AP-1 sites were synthesized and used as controls (OL.619, OL.620; OL.623-OL.630, Table 1). […] Also, binding of E. coli expressed hBVR protein, which is in monomeric form, to the 100-mer DNA fragment with two AP-1 sites was not detected.

[4] = target: T2, heme oxygenase-1 (HO-1), in vitro translated (UniProt P09601 P09601:1-288); assay: EMSA; specificity control; conditions: tags: rabbit reticulocyte lysate; label: 32P 5'
T2 sequence: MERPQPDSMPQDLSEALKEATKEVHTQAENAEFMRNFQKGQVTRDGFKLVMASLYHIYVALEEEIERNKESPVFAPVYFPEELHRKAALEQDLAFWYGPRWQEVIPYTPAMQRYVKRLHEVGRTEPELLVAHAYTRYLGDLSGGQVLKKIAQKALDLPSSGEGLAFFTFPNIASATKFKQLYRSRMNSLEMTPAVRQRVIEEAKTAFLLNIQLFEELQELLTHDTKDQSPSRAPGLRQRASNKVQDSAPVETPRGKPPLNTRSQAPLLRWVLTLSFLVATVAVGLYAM

[5] = target: T3, heme oxygenase-1 (hHO-1), E. coli expressed (Homo sapiens, UniProt P09601 P09601:1-288); assay: EMSA; specificity control; conditions: label: 32P 5'
T3 sequence: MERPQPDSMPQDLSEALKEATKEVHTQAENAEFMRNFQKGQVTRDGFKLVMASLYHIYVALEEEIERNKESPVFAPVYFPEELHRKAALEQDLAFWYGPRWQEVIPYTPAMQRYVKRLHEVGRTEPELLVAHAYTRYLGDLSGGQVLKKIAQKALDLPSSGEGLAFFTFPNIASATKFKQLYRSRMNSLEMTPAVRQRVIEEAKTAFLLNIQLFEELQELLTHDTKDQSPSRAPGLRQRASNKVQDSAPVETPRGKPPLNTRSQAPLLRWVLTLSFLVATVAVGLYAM

hBVR L157A = target: T4, hBVR L157A (Homo sapiens, UniProt P53004 SEQ:1-296, L157A); assay: EMSA; signal same as native hBVR with zero AP-1 DNA; conditions: tags: rabbit reticulocyte lysate; chain copies: 2; label: 32P 5'
T4 sequence: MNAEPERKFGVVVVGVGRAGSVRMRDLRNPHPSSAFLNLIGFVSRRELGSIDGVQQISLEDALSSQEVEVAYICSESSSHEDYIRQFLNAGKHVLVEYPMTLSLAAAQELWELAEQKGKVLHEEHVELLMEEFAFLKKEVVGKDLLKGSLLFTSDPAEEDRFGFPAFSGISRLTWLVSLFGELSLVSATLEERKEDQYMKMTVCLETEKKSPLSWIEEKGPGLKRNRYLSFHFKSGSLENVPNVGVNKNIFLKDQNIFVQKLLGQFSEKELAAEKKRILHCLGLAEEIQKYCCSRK
Description: as §2, §1

hBVR L150A = target: T5, hBVR L150A (Homo sapiens, UniProt P53004 SEQ:1-296, L150A); assay: as above; conditions: tags: rabbit reticulocyte lysate; chain copies: 2; label: 32P 5'
T5 sequence: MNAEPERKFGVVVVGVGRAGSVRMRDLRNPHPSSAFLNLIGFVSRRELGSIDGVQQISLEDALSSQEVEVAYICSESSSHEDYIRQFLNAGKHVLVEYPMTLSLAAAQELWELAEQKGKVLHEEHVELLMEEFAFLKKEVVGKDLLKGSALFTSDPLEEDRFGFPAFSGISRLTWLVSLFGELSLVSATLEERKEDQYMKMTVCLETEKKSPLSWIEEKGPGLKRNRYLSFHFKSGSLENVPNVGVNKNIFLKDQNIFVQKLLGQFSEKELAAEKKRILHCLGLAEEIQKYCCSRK
Description: as §2, §1

hBVR K143A = target: T6, hBVR K143A (Homo sapiens, UniProt P53004 SEQ:1-296, K143A); assay: as above; conditions: tags: rabbit reticulocyte lysate; chain copies: 2; label: 32P 5'
T6 sequence: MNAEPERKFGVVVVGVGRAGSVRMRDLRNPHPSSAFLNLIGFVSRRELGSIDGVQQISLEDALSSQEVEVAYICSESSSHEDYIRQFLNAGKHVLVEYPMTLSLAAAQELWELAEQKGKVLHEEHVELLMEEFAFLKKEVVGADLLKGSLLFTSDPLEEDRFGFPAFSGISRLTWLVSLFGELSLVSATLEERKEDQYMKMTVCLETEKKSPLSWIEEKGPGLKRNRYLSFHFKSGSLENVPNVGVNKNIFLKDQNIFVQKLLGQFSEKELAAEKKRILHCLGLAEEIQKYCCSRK
Description: as §2, §1

[6] = target: T1, biliverdin reductase (hBVR); assay: EMSA; conditions: tags: rabbit reticulocyte lysate, 35S-Met labelled; chain copies: 2 (stated homodimer); label: 32P 5'
Description: as §2, §3

B1: in vitro translated human biliverdin reductase (hBVR) (enzyme)
chain: MNAEPERKFGVVVVGVGRAGSVRMRDLRNPHPSSAFLNLIGFVSRRELGSIDGVQQISLEDALSSQEVEVAYICSESSSHEDYIRQFLNAGKHVLVEYPMTLSLAAAQELWELAEQKGKVLHEEHVELLMEEFAFLKKEVVGKDLLKGSLLFTSDPLEEDRFGFPAFSGISRLTWLVSLFGELSLVSATLEERKEDQYMKMTVCLETEKKSPLSWIEEKGPGLKRNRYLSFHFKSGSLENVPNVGVNKNIFLKDQNIFVQKLLGQFSEKELAAEKKRILHCLGLAEEIQKYCCSRK
notes: the entries concern its self-association into a homodimer; also called translated hBVR; native in vitro translated hBVR
- binding result [1]: binds

B2: in vitro translated hBVR mutant L150A (enzyme)
chain: MNAEPERKFGVVVVGVGRAGSVRMRDLRNPHPSSAFLNLIGFVSRRELGSIDGVQQISLEDALSSQEVEVAYICSESSSHEDYIRQFLNAGKHVLVEYPMTLSLAAAQELWELAEQKGKVLHEEHVELLMEEFAFLKKEVVGKDLLKGSALFTSDPLEEDRFGFPAFSGISRLTWLVSLFGELSLVSATLEERKEDQYMKMTVCLETEKKSPLSWIEEKGPGLKRNRYLSFHFKSGSLENVPNVGVNKNIFLKDQNIFVQKLLGQFSEKELAAEKKRILHCLGLAEEIQKYCCSRK
notes: Site-directed mutant made in p507 and translated in vitro with [35S] methionine; also called L4 mutant
- binding result [2]: no binding

B3: in vitro translated hBVR mutant K143A (enzyme)
chain: MNAEPERKFGVVVVGVGRAGSVRMRDLRNPHPSSAFLNLIGFVSRRELGSIDGVQQISLEDALSSQEVEVAYICSESSSHEDYIRQFLNAGKHVLVEYPMTLSLAAAQELWELAEQKGKVLHEEHVELLMEEFAFLKKEVVGADLLKGSLLFTSDPLEEDRFGFPAFSGISRLTWLVSLFGELSLVSATLEERKEDQYMKMTVCLETEKKSPLSWIEEKGPGLKRNRYLSFHFKSGSLENVPNVGVNKNIFLKDQNIFVQKLLGQFSEKELAAEKKRILHCLGLAEEIQKYCCSRK
notes: Site-directed mutant made in p507 and translated in vitro with [35S] methionine; also called K3 mutant
- binding result [2]: no binding

B4: in vitro translated hBVR mutant L157A (enzyme)
chain: MNAEPERKFGVVVVGVGRAGSVRMRDLRNPHPSSAFLNLIGFVSRRELGSIDGVQQISLEDALSSQEVEVAYICSESSSHEDYIRQFLNAGKHVLVEYPMTLSLAAAQELWELAEQKGKVLHEEHVELLMEEFAFLKKEVVGKDLLKGSLLFTSDPAEEDRFGFPAFSGISRLTWLVSLFGELSLVSATLEERKEDQYMKMTVCLETEKKSPLSWIEEKGPGLKRNRYLSFHFKSGSLENVPNVGVNKNIFLKDQNIFVQKLLGQFSEKELAAEKKRILHCLGLAEEIQKYCCSRK
notes: Site-directed mutant made in p507 and translated in vitro with [35S] methionine; also called L5 mutant
- binding result [2]: no binding

B5: 100-mer HO-1 promoter, two AP-1 sites (OL.623/OL.624) (dsDNA)
DNA 1: TCCTCAGCTGCTTTTATGCTGTGTCATGGTTGGGAGGGGTGATTAGCAGACAAAGGGAAGACAGATTTTGCTGAGTCACCCTCTGTTCCCTCTGCCTCAG
DNA 2: CTGAGGCAGAGGGAACAGAGGGTGACTCAGCAAAATCTGTCTTCCCTTTGTCTGCTAATCACCCCTCCCAACCATGACACAGCATAAAAGCAGCTGAGGA
- binding result [3]: binds
- binding result [4]: no binding
- binding result [5]: no binding
- binding result (hBVR L157A): no binding
- binding result (hBVR L150A): no binding
- binding result (hBVR K143A): no binding

B6: 56-mer, one AP-1 site (OL.627/OL.628) (dsDNA)
DNA 1: CACTGAGAGAAACTATTACACAAGCCACATTAGCATGACTCATTGTTTCTGATCAG
DNA 2: CTGATCAGAAACAATGAGTCATGCTAATGTGGCTTGTGTAATAGTTTCTCTCAGTG
- binding result [6]: no binding
- binding result [4]: no binding
